Numbering of substitutions follows the chain as printed. Where no end group is shown, it is not given here.
T1: Dido3 PHD finger (Homo sapiens, UniProt Q9BTC0)
T1 sequence (Q9BTC0 266-325): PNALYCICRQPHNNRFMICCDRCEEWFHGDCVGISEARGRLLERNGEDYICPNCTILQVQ

T2: Dido3 PHD D286A (UniProt Q9BTC0-4 266-325, D286A)
T2 sequence: T1 sequence (Q9BTC0 266-325) with D21A

T3: Dido3 PHD H277A (UniProt Q9BTC0-4 266-325, H277A)
T3 sequence: T1 sequence (Q9BTC0 266-325) with H12A

T4: Dido3 PHD E289A (UniProt Q9BTC0-4 266-325, E289A)
T4 sequence: T1 sequence (Q9BTC0 266-325) with E24A


Key:
Dido3 PHD finger [1] = target: T1, Dido3 PHD finger; experiment: 1H,15N HSQC NMR titration of 15N-labeled Dido3 PHD with histone peptides; assay type: binding; conditions: for chemical-shift changes in 1H,15N HSQC spectra: peptides aa 1–12 of H3 (H3K4me0: aa 1–19)
Dido3 PHD finger [2] = target: T1, Dido3 PHD finger; assay type: binding; conditions: wild-type Dido3 PHD, tryptophan fluorescence and NMR, peptides aa 1–12 of H3
Dido3 PHD D286A = target: T2, Dido3 PHD D286A; experiment: other fluorescence titration + NMR titration
Dido3 PHD H277A = target: T3, Dido3 PHD H277A; experiment: other fluorescence titration + NMR titration
Dido3 PHD E289A = target: T4, Dido3 PHD E289A; experiment: other fluorescence titration + NMR titration

Row | weaker binding relative to H3K4me3 (Dido3 PHD finger [2]) | exchange regime on the NMR timescale (Dido3 PHD finger [1]; peptide aa 1–12 of H3) | fold decrease of binding against the wild type (Dido3 PHD D286A) | binding result (Dido3 PHD H277A) | fold decrease of binding against the wild type (Dido3 PHD E289A) | Molecule | chemical-shift changes in 1H,15N HSQC spectra (Dido3 PHD finger [1])
1 | 6 fold |  |  |  |  | H3K4me2: H3K4me2 peptide (aa 1–12 of H3) | very similar pattern of chemical-shift changes
2 | 85 fold | intermediate exchange regime |  |  |  | H3K4me1: H3K4me1 peptide (aa 1–12 of H3) | very similar pattern of chemical-shift changes
3 |  |  | ~200 fold | binds | ~4 fold | ARTK(Me3)QTARKSTG (peptide, UniProt P68431 2-13, looked up) [H3K4me3 peptide (aa 1-12 of H3)] | 
